Measurements reported in paper PMC5441903, “The E3 ligase ABI3-INTERACTING PROTEIN2 negatively regulates FUSCA3 and plays a role in cotyledon development in Arabidopsis thaliana” (Journal of Experimental Botany, 2017).
Substitutions are numbered along the chain they refer to. Blank lines part the entries; values can stand above or below the binder they belong to.

Biological target: T1, GST–FUS3 (Arabidopsis thaliana, UniProt Q9LW31 1-313)
T1 construct: FUSCA3 (FUS3), Arabidopsis thaliana, At3g26790; GST fusion of ~66 kDa, construct described in Lu et al. (2010); probably the whole FUS3; also called glutathione S-transferase (GST)–FUS3; source: recombinant, purified (glutathione resin)
T1 sequence (looked up): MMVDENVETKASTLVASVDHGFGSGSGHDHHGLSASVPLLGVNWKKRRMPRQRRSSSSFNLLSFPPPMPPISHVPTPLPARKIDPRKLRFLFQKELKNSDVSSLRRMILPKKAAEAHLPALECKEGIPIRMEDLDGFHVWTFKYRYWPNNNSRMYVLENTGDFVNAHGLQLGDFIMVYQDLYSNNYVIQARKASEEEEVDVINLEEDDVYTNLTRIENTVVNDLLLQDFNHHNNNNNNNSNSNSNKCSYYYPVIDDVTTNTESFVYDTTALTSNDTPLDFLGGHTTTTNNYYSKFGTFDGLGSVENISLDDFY
Assay: pull-down; purified GST–FUS3 as bait, purified AIP2-6×His variants as prey; glutathione resin; immunoblots with anti-His and anti-GST
Settings: both partners purified

- binding result: binds
B1: FLAG-AIP2-6×His (natural protein, Arabidopsis thaliana, UniProt Q8RXD3 1-310, looked up)
chain: MDASSSPSPSEESLKLELDDLQKQLNKKLRFEASVCSIHNLLRDHYSSSSPSLRKQFYIVVSRVATVLKTRYTATGFWVAGLSLFEEAERLVSDASEKKHLKSCVAQAKEQLSEVDNQPTESSQGYLFEGHLTVDREPPQPQWLVQQNLMSAFASIVGGESSNGPTENTIGETANLMQELINGLDMIIPDILDDGGPPRAPPASKEVVEKLPVIIFTEELLKKFGAEAECCICKENLVIGDKMQELPCKHTFHPPCLKPWLDEHNSCPICRHELPTDDQKYENWKEREKEAEEERKGAENAVRGGEYMYV
notes: tagged protein of ~40 kDa; also called AIP2-His; source: cloned into pET28, purified (Ni-NTA-agarose)

- binding result: binds
B2: AIP2^(C/S,E/G)-6×His (inactive AIP2 variant) (natural protein, Arabidopsis thaliana, UniProt Q8RXD3 1-310, looked up)
chain: B1 chain with C230S, C231S, E235G
notes: ~40 kDa; Probably the same FLAG-...-6×His construct as m5 with the three mutations; source: recombinant, purified
